Assay results taken from patent WO2009138494A2 (dated 2009).
Residue numbers refer to the chain shown, from its start.

Columns and labels:
[1] = target: T1, recombinant murine TLR3, R&D Systems cat no: 3005-TR (murine, UniProt Q99MB1 26-705, limits assumed); assay: ELISA: TLR coated at 2 ug/ml, periplasmic extract of the clone, anti-VHH detection, OD against no-Nanobody control
T1 construct: Bought protein, coated on ELISA plates; also called mTLR3

[2] = target: T2, recombinant human TLR3, R&D Systems cat no: 1487-TR (human, UniProt O15455 27-700, limits assumed); assay: as above
T2 construct: Bought protein, coated on ELISA plates; also called hTLR3

T1 sequence (Q99MB1 26-705 limits assumed): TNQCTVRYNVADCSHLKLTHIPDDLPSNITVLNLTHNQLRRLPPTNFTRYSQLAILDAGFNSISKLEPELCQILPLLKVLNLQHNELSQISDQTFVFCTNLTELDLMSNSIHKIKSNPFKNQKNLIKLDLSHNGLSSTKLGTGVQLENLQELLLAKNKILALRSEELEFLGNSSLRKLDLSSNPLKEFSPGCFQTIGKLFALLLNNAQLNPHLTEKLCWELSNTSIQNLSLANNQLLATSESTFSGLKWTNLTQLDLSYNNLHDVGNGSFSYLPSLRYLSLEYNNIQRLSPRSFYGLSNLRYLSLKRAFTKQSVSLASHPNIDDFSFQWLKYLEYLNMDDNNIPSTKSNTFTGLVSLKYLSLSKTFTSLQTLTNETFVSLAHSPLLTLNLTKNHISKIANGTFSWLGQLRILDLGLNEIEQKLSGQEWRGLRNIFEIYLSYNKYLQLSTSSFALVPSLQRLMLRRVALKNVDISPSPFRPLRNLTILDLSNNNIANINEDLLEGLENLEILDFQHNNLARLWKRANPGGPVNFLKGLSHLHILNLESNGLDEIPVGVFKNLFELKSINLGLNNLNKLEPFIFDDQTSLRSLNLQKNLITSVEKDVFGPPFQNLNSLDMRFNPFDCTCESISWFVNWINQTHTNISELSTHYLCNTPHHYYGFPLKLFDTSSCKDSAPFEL

B1: 132-B3 (VHH)
VHH: EVQLVESGGGLVQAGGSLRLSCVASGSPFSIGATGWYRQAPGKQRDLVAEIYPSGDTIYADSVKGRSTISRDNAKNTVYLQMNSLKPEDTAVYFCNVVRWGVDYWGQGTQVTVSS
notes: not shown: C-terminal c-myc tag and (His)6 tag coded by the vector
[1]
  binding result: binds

B2: 132-H4 (VHH)
VHH: EVQLVESGGGLVQAGGSLRLSCVASGTSIMVGAMGWYRQAPGKQRDLVAEIYPSGSTIYEDSVKGRFTISRDNAKNTVYLQMNSLKPEDTAVYYCNVLRWGVDYWGQGTQVTVSS
notes: as for B1
[1]
  binding result: binds

B3: 132-E5 (VHH)
VHH: EVQLVESGGGLVQAGGSLRLSCVVSGSSFSVGAAGWYRQAPGKQRDLVAEIYPSGSTSYADSVKGRFTISRDNAKNIMYLQMNALKLEDTAVYYCNVVRWGVDYWGQGTQVTVSS
notes: as for B1
[1]
  binding result: binds

B4: 132-B1 (VHH)
VHH: B1 VHH with L85M
notes: as for B1
[1]
  binding result: binds

B5: 132-D1 (VHH)
VHH: B1 VHH with S27T, P28S, T34A, V48L, D56S, S67F, S84A, F94Y, V97A
notes: as for B1
[1]
  binding result: binds

B6: 132-B5 (VHH)
VHH: EVQLVESGGGLVQAGGSLRLSCVASGLVSSYYGMGWFRQAPGKEREFVASVNWSGKDTYYGDSVKGRFAVSRDSGKNTGFLQMNSLKSEDTAVYYCARRRGGGTGTGNPSEYDYWGQGTQVTVSS
notes: as for B1
[1]
  binding result: binds

B7: 132-A12 (VHH)
VHH: EVQLVESGGGLVQAGGSLRLSCAASGRNFRRNSMGWYRLTSGKQREMVARISNGGTTVYADSVKGRFTISRDNAKNTVYLQMNSLKFEDTAVYYCNAGDYTDSMYWGQGTQVTVSS
notes: as for B1
[2]
  binding result: binds

B8: 132-F7 (VHH)
VHH: EVQLVESGGGLVQAGGSLRLSCAASGNTFSFNVMGWYRQAPGKQRELVTIIDNGGTTNYADSVKGRFTISRDNAKNTVYLQMNSLKPEDTARYYCHARRGGTLYILGDSNYWGQGTQVTVSS
notes: as for B1
[2]
  binding result: binds

B9: 132-G9 (VHH)
VHH: B8 VHH with A14T, S30N, G54S, Y94F, T102S, I105T
notes: as for B1
[2]
  binding result: binds

B10: 132-B8 (VHH)
VHH: B8 VHH with E1A, F31I, E46D, N53D, Y94F, T102N, L103A, I105T, D108E
notes: as for B1
[2]
  binding result: binds

B11: 132-E10 (VHH)
VHH: B8 VHH with F31I, N58S, Y94T, I105T
notes: as for B1
[2]
  binding result: binds

B12: 132-B12 (VHH)
VHH: B8 VHH with F31I, I51M, N53D, G54S, D61G, N83S, Y94F, L103A, I105T
notes: as for B1
[2]
  binding result: binds

B13: 132-F12 (VHH)
VHH: B8 VHH with K43N, G54S, I69V, T102G, D108E
notes: as for B1
[2]
  binding result: binds

B14: 132-D3 (VHH)
VHH: VQLVESGGGLVQAGGSLRLSCVASGTSFSVGAAGWYRQAPGKQRDLVAEIYPSGSTIYADSVKGRFTISRDNAKNTVYLQMNALKPEDTAVYYCNVVRWGVDYWGQGTQVTVSS
notes: as for B1
[1]
  binding result: binds

B15: 132-G5 (VHH)
VHH: EVQLVESGGGLVQPGGSLRLSCAASGSILSIHYMGWFRQAPGKQRELVAGIPTGGTTNYADSVKGRFTMSRDNAKNTVDLQMNTMKPEDTAVYYCNAWISSERESRWLNYWGQGTQVTVSS
notes: as for B1
[1]
  binding result: binds
